Test [1] deals with esophageal cancer PDX model E7. The experiment in a line: Tumor growth inhibition in esophageal cancer PDX model. Type of test: in vivo, NOD/SCID mice. The note with it: 26th day; antibody 20 mg/kg i.p. twice a week, cisplatin 3 mg/kg i.v. once a week, 4 weeks. The source says: Human gremlin IHC specifically positive esophageal tumor tissue (E7) was obtained from Beijing Cancer Hospital passage in NOD/SCID mice and established PDX bank. […] Each mouse was subcutaneously inoculated with a small tumor tissue block approximately 3 mm in diameter which sheared from integrated tumor decollement form a tumor bearing mouse. 18 days after inoculation animals with tumor size at about 70 mmn^3 were selected and randomly divided into 4 groups, each group consisting of 8 mice. Then the mice were treated with isotype control+PBS, the anti-GREM1 antibody of the present disclosure at dose of 20 mg/kg, Cisplatin at dose of 3 mg/kg and combination of the anti-GREM1 antibody of the present disclosure and Cisplatin. Isotype control and the anti-GREM1 antibody of the present disclosure were administrated twice a week for 4 weeks by i.p. injection and PBS, while Cisplatin was administrated once a week for 4 weeks by i.v. injection. Animals were sacrificed at the end of the study with CO2 inhalation. Tumor size was measured twice or triple times a week in two dimensions using a caliper (INSIZE) and the volume was expressed in mmA3 using the formula: V=0.5 a*b^2 where a and b are the long and short diameters of the tumor, respectively. Results were analyzed using Prism GraphPad and expressed as mean±S.E.M. Comparisons between two groups were made by T-test, and the difference is considered significant if p is *<0.05 and **<0.01.

The target in test [2] is T1, human Gremlin/GREM1 protein (Acro) (human, UniProt O60565 25-184).
T1 construct: Bought protein (ACRO); also called hGREM1 (ACRO); human GREM1; not shown: his tag
T1 sequence (looked up): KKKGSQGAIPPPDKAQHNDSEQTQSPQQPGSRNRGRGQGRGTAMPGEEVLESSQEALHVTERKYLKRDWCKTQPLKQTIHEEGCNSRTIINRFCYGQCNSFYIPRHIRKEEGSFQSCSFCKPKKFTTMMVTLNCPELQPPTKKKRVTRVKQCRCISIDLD
The experiment in a line: ELISA, coated hGREM1 (ACRO). The protocol: (§1) A transparent polystyrene culture plate (BEAVER) was coated with a high pH coating buffer containing 0.5 μg/ml hGREM1 (ACRO) and mouse gremlin (R&D) at 100 μl/well at 4° C. overnight. Then, the culture plate was washed once with PBS and 0.1% of Tween 20 (Sigma) on an automatic culture plate washer. 100 μl of a blocking solution consisting of PBS, 1% of BSA, 1% of standard goat serum and 0.50% of Tween 20 (Sigma) was added into each well for incubation at room temperature for 2 hours. Then, 100 μl of an antibody (started with 2 μg/ml and continuously diluted) in an antibody dilution buffer containing PBS, 1% of BSA, 1% of standard goat serum and 0.01% of Tween 20 was added into each well of the culture plate for incubation at room temperature for 1 hour. Then, the culture plate was washed with 200 μl of a solution containing PBS and 0.1% of Tween 20 for three times, and goat anti-mouse IgG-HRP (Abcam) at a ratio of 1:10000 was added at 100 μl/well for incubation at room temperature for 1 hour. Then, the culture plate was washed with a solution containing PBS and 0.1% of Tween 20 for 3 times. Finally, TMB (Pierce) was added into each well at 100 μl/well, and several minutes later, 50 μl of a termination solution was added into each well. The culture plate was read on a Multiscan FC microplate reader (Thermo Scientific) at 450 nM.

The target of test [3] is T1, human Gremlin/GREM1 protein (Acro). In words: BLI (ForteBio), human GREM1-his on NTA biosensor, antibody at 100, 50 and 25 nM. As to the method:
(§2) The concentration of 0 nM was used as a reference control. The antibody to be tested was diluted to a concentration of 100 nM, 50 nM and 25 nM with a ForteBio kinetic buffer (including PBS with a pH value of 7.4, 0.1% of BSA and 0.002% of Tween-20). […] Then, dissociation was performed in a kinetic buffer for 90 seconds to obtain Koff factor data.

Test [4] has the same target. The experiment in a line: BLI (ForteBio), human GREM1-his on NTA biosensor. The protocol: as §2
In general terms: BLI is a label-free optical method that tracks binding on a fibre tip over time.

Test [5] has the same target. In words: ELISA, binding to hGremlin-his. As to the method:
as §1

The next test addresses T2, Human GREM1 (Homo sapiens, UniProt O60565).
T2 construct: His; purchased ACRO
T2 sequence (O60565 25-184): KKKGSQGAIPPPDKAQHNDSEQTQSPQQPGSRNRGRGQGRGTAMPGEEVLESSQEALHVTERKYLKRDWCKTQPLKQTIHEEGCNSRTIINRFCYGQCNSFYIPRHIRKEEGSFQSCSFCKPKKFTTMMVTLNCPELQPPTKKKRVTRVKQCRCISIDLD
The experiment in a line: Binding affinity to human GREM1 through ELISA. The conditions noted are these: for EC50 of binding to hGremlin-his: Table 17. As to the method:
as §1, with “nM. As shown in Table 16 and Table 17, compared with a reference antibody 6245P, the anti-GREM1 antibody used in the present disclosure and other humanized anti-GREM1 antibodies (e.g., Hu14E3_HaLb, Hu14E3_HbLa, Hu14E3_HbLb, Hu14E3_HcLa and Hu14E3_HcLb) have better binding affinity with human GREM1.” for “nM.”
In general terms: In an ELISA, binding on a coated surface is turned into a signal by an enzyme label.

Test [6] concerns the target modified human GREM1-his (human) (UniProt O60565). In words: blocking ELISA; competitor coated human BMP2; 1 ug/ml modified human GREM1-his detected with anti-his HRP.
For test [7], the target named is human Gremlin/GREM1 protein (Acro) (human) (UniProt O60565). In words: ELISA, binding to hGremlin-his.
Test [8] shares this target. The experiment in a line: ELISA, coated hGREM1 (ACRO).
Test [9] addresses modified human GREM1-his (human) (UniProt O60565). In words: blocking ELISA; competitor coated human BMP4; 1 ug/ml modified human GREM1-his detected with anti-his HRP.
The target of test [10] is human Gremlin/GREM1 protein (Acro) (human) (UniProt O60565). In words: BLI (ForteBio), human GREM1-his on NTA biosensor, antibody at 100, 50 and 25 nM.

Where only a bound is given, the exact number is not on record here.

Regarding `N.N.[Cl][Pt][Cl]` [Cisplatin, reference compound], in test [1], the “TGI (%)” value was 59.79% and the “Tumor size (mm^3, mean +/− S.E.M)” value is 479.41 +/− 104.05 mm^3.

B1: Hu14E3_HaLa (antibody, human IgG1, kappa, V domains shown)
VH: QVQLVQSGSELKKPGASVKVSCKASGYTFTTYGMAWMRQAPGQGLEWMGWINTLSGEPTYADDFKGRFVFSLDTSVSTAYLQISSLKAEDTAVYYCAREPMDYWGQGTMVTVSS
VL: DVVMTQSPLSLPVTLGQPASISCKSSQSLLDSDGKTYLSWLQQRPGQSPRRLIYLVSKLDSGVPDRFSGSGSGTDFTLKISRVEAEDVGVYYCWQGAHFPLTFGQGTKLEIKR
notes: also called anti-GREM1 antibody used in the present disclosure; humanized 14E3
In the case of B1, the EC50 in test [2] amounted to 6.9 ng/mL. The Kd in [3] was less than 0.001 nM; in test [4], less than 1 nM.

B2: Hu14E3_HbLb (antibody, human IgG1, V domains shown)
VH: QIQLVQSGSELKKPGASVKVSCKASGYTFTTYGMAWMRQAPGQGLEWMGWINTLSGEPTYADDFKGRFAFSLDTSVSTAYLQISSLKAEDTAVYYCAREPMDYWGQGTMVTVSS
VL: DVVMTQSPLSLPVTLGQPASISCKSSQSLLDSDGKTYLSWLQQRPGQSPRRLISLVSKLDSGVPDRFSGSGSGTDFTLKISRVEAEDVGVYYCWQGAHFPLTFGQGTKLEIK
notes: also called humanized 14E3
B2 showed an EC50 in test [5] of 6.2 ng/mL. In addition, the “EC50 of binding to hGremlin-his” value with Human GREM1 came to 6.2 ng/mL.

B3: Hu14E3_HaLa: humanized 14E3, heavy chain variable region SEQ ID NO: 7, light chain variable region SEQ ID NO: 8; antibody used in the examples (antibody, V domains shown)
VH: QVQLVQSGSELKKPGASVKVSCKASGYTFTTYGMAWMRQAPGQGLEWMGWINTLSGEPTYADDFKGRFVFSLDTSVSTAYLQISSLKAEDTAVYYCAREPMDYWGQGTMVTVSS
VL: DVVMTQSPLSLPVTLGQPASISCKSSQSLLDSDGKTYLSWLQQRPGQSPRRLIYLVSKLDSGVPDRFSGSGSGTDFTLKISRVEAEDVGVYYCWQGAHFPLTFGQGTKLEIK
Turning to B3, the “EC50 (ng/ml) Human GREM1” value in the test with Human GREM1 (Table 16) stood at 6.90 ng/mL. In the test with Human GREM1, the “EC50 of binding to hGremlin-his” value was determined as 6.9 ng/mL. In addition, in test [1], the “TGI (%)” value was found to be 42.92% and the “Tumor size (mm^3, mean +/− S.E.M)” value is listed as 680.59 +/− 163.73 mm^3.

B4: Hu14E3_HaLb (antibody, human IgG1, V domains shown)
VH: QVQLVQSGSELKKPGASVKVSCKASGYTFTTYGMAWMRQAPGQGLEWMGWINTLSGEPTYADDFKGRFVFSLDTSVSTAYLQISSLKAEDTAVYYCAREPMDYWGQGTMVTVSS
VL: DVVMTQSPLSLPVTLGQPASISCKSSQSLLDSDGKTYLSWLQQRPGQSPRRLISLVSKLDSGVPDRFSGSGSGTDFTLKISRVEAEDVGVYYCWQGAHFPLTFGQGTKLEIK
notes: also called humanized 14E3
In [5], B4 showed an EC50 of 5.6 ng/mL. Also, the “EC50 of binding to hGremlin-his” value with Human GREM1 came to 5.6 ng/mL.

B5: Hu14E3_HcLb (antibody, human IgG1, V domains shown)
VH: QIQLVQSGSELKKPGASVKVSCKASGSTFTTYGMAWMKQAPGQGLTWMGWINTLSGEPTYADDFKGRFAFSLDTSVSTAYLQISSLKAEDTAVYYCAREPMDYWGQGTMVTVSS
VL: DVVMTQSPLSLPVTLGQPASISCKSSQSLLDSDGKTYLSWLQQRPGQSPRRLISLVSKLDSGVPDRFSGSGSGTDFTLKISRVEAEDVGVYYCWQGAHFPLTFGQGTKLEIK
notes: also called humanized 14E3
In [5], B5 displayed an EC50 of 6.1 ng/mL. Moreover, in the test with Human GREM1, the “EC50 of binding to hGremlin-his” value came to 6.1 ng/mL.

B6: Hu14E3_HcLa (antibody, human IgG1, V domains shown)
VH: QIQLVQSGSELKKPGASVKVSCKASGSTFTTYGMAWMKQAPGQGLTWMGWINTLSGEPTYADDFKGRFAFSLDTSVSTAYLQISSLKAEDTAVYYCAREPMDYWGQGTMVTVSS
VL: DVVMTQSPLSLPVTLGQPASISCKSSQSLLDSDGKTYLSWLQQRPGQSPRRLIYLVSKLDSGVPDRFSGSGSGTDFTLKISRVEAEDVGVYYCWQGAHFPLTFGQGTKLEIK
notes: also called humanized 14E3
In the case of B6, the midpoint of the response in test [5], the EC50, lay at 6.6 ng/mL. Besides, in the test with Human GREM1, the “EC50 of binding to hGremlin-his” value was 6.6 ng/mL.

B7: Hu14E3_HbLa (antibody, human IgG1, V domains shown)
VH: QIQLVQSGSELKKPGASVKVSCKASGYTFTTYGMAWMRQAPGQGLEWMGWINTLSGEPTYADDFKGRFAFSLDTSVSTAYLQISSLKAEDTAVYYCAREPMDYWGQGTMVTVSS
VL: DVVMTQSPLSLPVTLGQPASISCKSSQSLLDSDGKTYLSWLQQRPGQSPRRLIYLVSKLDSGVPDRFSGSGSGTDFTLKISRVEAEDVGVYYCWQGAHFPLTFGQGTKLEIK
notes: also called humanized 14E3
B7 displayed an EC50 in [5] of 6 ng/mL. The “EC50 of binding to hGremlin-his” value with Human GREM1 stood at 6.0 ng/mL.

B8: reference antibody 6245P (antibody, from another filing, IgG4, V domains shown)
VH: EVQLVESGGGLVQPGGSLRLSCAASGFTFNSFWMSWVRQAPGKGLEWVANIKQDGSEKYYVDSVKGRFTISRDNAKNSVYLQMNSLRAEDTAVYYCARDLVTSFDYWGQGTLVTVSS
VL: DIQMTQSPSSLSASVGDRVTITCQASQDINNYLNWYQQKPGKAPKLLIYDASYLETGVPSGFSGSGSGTDFTFTISSLQPEDIATYYCQQYDSLPYTFGQGTKLEIK
Regarding B8, the IC50 came to 797 ng/mL in test [6] and 638 ng/mL in test [9]. The EC50 in test [7] and in test [8] was 57.5 ng/mL throughout. The equilibrium dissociation constant (Kd) in [10] was determined as 2.58 nM.

In general, EC50 refers to the midpoint of the concentration-response curve. Usually Kd stands for the concentration at which binding is half-saturated. A lower Kd goes with a tighter complex. What is called IC50 is the concentration that inhibits the measured activity by half. Read a low IC50 as greater potency.
